Measured values: patent publication US20220252584, “METHODS AND DEVICES FOR […] A PATHOGEN AND ITS MOLECULAR COMPONENTS” (THE REGENTS OF THE UNIVERSITY OF CALIFORNIA, published 2022)

Experiments:
SARS-CoV spike RBD = SARS-CoV spike RBD (SARS-CoV, UniProt P59594 P59594:306-527)
SARS-CoV-2 spike RBD = SARS-CoV-2 spike RBD (SARS-CoV-2, UniProt P0DTC2 P0DTC2:319-541)
[1] = biological target: SARS-CoV-2 nucleocapsid (N) protein (SARS-CoV-2, UniProt P0DTC9 P0DTC9:1-419)
SARS-CoV N protein = SARS-CoV N protein (SARS-CoV, UniProt P59595 P59595:1-422)

B1: Aptamer-S (Aptamer 1C) (ssDNA)
DNA: CAGCACCGACCTTGTGCTTTGGGAGTGCTGGTCCAAGGGCGTTAATGGACA
**Q.** Does B1 bind (SARS-CoV spike RBD)?
**A.** binds

**Q.** Does B1 bind (SARS-CoV-2 spike RBD)?
**A.** binds

B2: Aptamer-N (Aptamer Np-48) (ssDNA)
DNA: GCTGGATGTCGCTTACGACAATATTCCTTAGGGGCACCGCTACATTGACACATCCAGC
modifications: 3' amino linker, coupled to PBASE-graphene
**Q.** Does B2 bind [1]?
**A.** binds

B3: Aptamer-N (Aptamer Np-48) (ssDNA)
DNA: B2 DNA
**Q.** Does B3 bind (SARS-CoV N protein)?
**A.** binds
